Data reported in US20170015742A1 (published 2017).
Numbering of substitutions follows the chain as printed. One block for each binder: values may come before it.

Molecular target: recombinant human PDGF-BB (human, UniProt P01127 82-190)
Assay: cell-based or functional assay

recombinant human PDGF-BB, sequence (P01127 82-190 limits assumed): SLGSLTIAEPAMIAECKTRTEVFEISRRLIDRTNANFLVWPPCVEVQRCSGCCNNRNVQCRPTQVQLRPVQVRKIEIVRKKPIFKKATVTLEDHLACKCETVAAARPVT

- NIH-3T3 hPDGF-BB Potency IC50: > 5 nM
B4: DVD3906 DVD-Ig (PR-1565035) (bispecific antibody, human IgG1, kappa, L234A L235A)
heavy: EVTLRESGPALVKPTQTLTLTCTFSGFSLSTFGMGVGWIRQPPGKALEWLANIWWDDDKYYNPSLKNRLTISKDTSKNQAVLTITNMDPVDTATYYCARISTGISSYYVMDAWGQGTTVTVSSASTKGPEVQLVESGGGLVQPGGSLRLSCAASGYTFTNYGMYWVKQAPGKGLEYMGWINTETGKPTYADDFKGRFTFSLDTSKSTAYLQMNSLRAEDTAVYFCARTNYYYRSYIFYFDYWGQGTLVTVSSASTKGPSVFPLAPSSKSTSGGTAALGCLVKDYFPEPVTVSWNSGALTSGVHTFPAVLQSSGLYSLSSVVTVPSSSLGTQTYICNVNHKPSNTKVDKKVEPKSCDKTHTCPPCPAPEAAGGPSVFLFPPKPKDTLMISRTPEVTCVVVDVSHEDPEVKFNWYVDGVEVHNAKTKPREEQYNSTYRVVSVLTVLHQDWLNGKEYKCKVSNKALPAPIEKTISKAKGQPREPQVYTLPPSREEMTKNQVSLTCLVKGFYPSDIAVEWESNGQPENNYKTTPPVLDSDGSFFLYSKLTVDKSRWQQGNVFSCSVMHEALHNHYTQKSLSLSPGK
light: DFQLTQSPSSLSASVGDRVTITCERSSGDIGDTYVSWYQQKPGKAPKNVIYGNDQRPSGVPSRFSGSGSGNSATLTISSLQPEDFATYFCQSYDSDIDIVFGQGTKVEIKGTVAAPSVFIFPPDTQLTQSPSSLSASVGDRVTISCRASESVSTHMHWYQQKPGKAPKLLIYGASNLESGVPSRFSGSGSGTDFTLTISSLQPEDFATYFCQQSWNDPFTFGQGTKVEIKRTVAAPSVFIFPPSDEQLKSGTASVVCLLNNFYPREAKVQWKVDNALQSGNSQESVTEQDSKDSTYSLSSTLTLSKADYEKHKVYACEVTHQGLSSPVTKSFNRGEC

- NIH-3T3 hPDGF-BB Potency IC50: 0.059 nM
B7: CODV022 cross-over DVD-Ig (PR-1577056) (bispecific antibody, human IgG1, kappa, L234A L235A)
heavy: EVQLVQSGSELKKPGASVKVSCKASGYTFTNYGMYWVRQAPGQGLEWMGWINTETGKPTYADDFKGRFVFSLDTSVSTAYLQISSLKAEDTAVYYCARTNYYYRSYIFYFDYWGQGTMVTVSSGGGGSGGGEFVLTQSPGTLSLSPGERATLSCERSSGDIGESYVSWYQQKPGQAPRLVIYADDQRPSGIPDRFSGSGSGTDFTLTISRLEPEDFAVYYCQSYDINIDIVFGGGTKVEIKGGGSGASTKGPSVFPLAPSSKSTSGGTAALGCLVKDYFPEPVTVSWNSGALTSGVHTFPAVLQSSGLYSLSSVVTVPSSSLGTQTYICNVNHKPSNTKVDKKVEPKSCDKTHTCPPCPAPEAAGGPSVFLFPPKPKDTLMISRTPEVTCVVVDVSHEDPEVKFNWYVDGVEVHNAKTKPREEQYNSTYRVVSVLTVLHQDWLNGKEYKCKVSNKALPAPIEKTISKAKGQPREPQVYTLPPSREEMTKNQVSLTCLVKGFYPSDIAVEWESNGQPENNYKTTPPVLDSDGSFFLYSKLTVDKSRWQQGNVFSCSVMHEALHNAYTQKSLSLSPGK
light: EVTLRESGPALVKPTQTLTLTCTFSGFSLSTYGMGVGWIRQPPGKALEWLANIWWDDDKYYNPSLKNRLTISKDTSKNQVVLTMTNMDPVDTATYYCARIESIGTTYSFDYWGQGTMVTVSSGGGGSDTVLTQSPATLSLSPGERATLSCRASESVSTHMHWYQQKPGQAPRLLIYGASNLESGVPARFSGSGSGTDFTLTISSLEPEDFAVYFCQQSWNDPFTFGQGTKLEIKGGSRTVAAPSVFIFPPSDEQLKSGTASVVCLLNNFYPREAKVQWKVDNALQSGNSQESVTEQDSKDSTYSLSSTLTLSKADYEKHKVYACEVTHQGLSSPVTKSFNRGEC

- NIH-3T3 hPDGF-BB Potency IC50: > 5 nM
B11: DVD3904 DVD-Ig (PR-1565031) (bispecific antibody, human IgG1, kappa, L234A L235A)
heavy: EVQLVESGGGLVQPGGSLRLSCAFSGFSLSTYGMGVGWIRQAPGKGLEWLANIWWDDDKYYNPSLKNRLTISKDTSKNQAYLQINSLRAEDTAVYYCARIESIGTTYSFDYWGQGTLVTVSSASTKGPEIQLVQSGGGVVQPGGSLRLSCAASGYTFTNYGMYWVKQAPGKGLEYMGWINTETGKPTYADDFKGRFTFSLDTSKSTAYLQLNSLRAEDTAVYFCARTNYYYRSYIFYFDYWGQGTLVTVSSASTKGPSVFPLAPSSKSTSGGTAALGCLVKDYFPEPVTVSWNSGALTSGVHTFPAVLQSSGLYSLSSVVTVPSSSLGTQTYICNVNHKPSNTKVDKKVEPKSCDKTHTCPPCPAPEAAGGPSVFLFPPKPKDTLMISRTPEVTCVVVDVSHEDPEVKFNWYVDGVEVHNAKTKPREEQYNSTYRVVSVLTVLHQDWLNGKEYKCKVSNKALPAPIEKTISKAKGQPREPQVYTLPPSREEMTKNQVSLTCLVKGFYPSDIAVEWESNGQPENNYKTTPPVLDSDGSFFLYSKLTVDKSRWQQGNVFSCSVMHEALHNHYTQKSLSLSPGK
light: DFQLTQSPSSLSASVGDRVTITCERSSGDIGDSYVSWYQQKPGKAPKNVIYADDQRPSGVPSRFSGSGSGNSASLTISSLQPEDFATYFCQSYDINIDIVFGQGTKVEIKGTVAAPSVFIFPPDTVLTQSPSTLSASPGERATISCRASESVSTHMHWYQQKPGQAPKLLIYGASNLESGVPSRFSGSRSGTDFTLTISSLQPEDFAVYFCQQSWNDPFTFGQGTKVEIKRTVAAPSVFIFPPSDEQLKSGTASVVCLLNNFYPREAKVQWKVDNALQSGNSQESVTEQDSKDSTYSLSSTLTLSKADYEKHKVYACEVTHQGLSSPVTKSFNRGEC

- NIH-3T3 hPDGF-BB Potency IC50: > 5 nM
B12: DVD3905 DVD-Ig (PR-1565032) (bispecific antibody, human IgG1, kappa, L234A L235A)
heavy: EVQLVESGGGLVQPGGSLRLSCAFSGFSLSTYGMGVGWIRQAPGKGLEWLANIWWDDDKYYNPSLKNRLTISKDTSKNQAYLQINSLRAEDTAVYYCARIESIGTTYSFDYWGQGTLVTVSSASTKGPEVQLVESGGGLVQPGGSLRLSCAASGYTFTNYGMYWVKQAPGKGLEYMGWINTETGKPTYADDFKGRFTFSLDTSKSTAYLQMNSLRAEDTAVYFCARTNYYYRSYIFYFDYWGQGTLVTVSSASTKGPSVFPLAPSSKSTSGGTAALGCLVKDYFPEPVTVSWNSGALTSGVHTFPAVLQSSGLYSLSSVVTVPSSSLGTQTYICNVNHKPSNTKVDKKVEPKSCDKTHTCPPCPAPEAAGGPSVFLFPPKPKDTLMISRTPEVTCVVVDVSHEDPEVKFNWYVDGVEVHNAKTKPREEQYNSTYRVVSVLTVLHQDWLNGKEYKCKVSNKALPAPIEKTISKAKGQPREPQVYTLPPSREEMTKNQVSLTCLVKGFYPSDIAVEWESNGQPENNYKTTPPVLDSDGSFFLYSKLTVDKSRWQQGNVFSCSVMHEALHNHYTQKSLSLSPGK
light: B4 light with T33S, G52A, N53D, T74S, S95I, D96N

Second part, the binder before the results:

B1: CODV004 cross-over DVD-Ig (PR-1565051) (bispecific antibody, human IgG1, kappa, L234A L235A)
heavy: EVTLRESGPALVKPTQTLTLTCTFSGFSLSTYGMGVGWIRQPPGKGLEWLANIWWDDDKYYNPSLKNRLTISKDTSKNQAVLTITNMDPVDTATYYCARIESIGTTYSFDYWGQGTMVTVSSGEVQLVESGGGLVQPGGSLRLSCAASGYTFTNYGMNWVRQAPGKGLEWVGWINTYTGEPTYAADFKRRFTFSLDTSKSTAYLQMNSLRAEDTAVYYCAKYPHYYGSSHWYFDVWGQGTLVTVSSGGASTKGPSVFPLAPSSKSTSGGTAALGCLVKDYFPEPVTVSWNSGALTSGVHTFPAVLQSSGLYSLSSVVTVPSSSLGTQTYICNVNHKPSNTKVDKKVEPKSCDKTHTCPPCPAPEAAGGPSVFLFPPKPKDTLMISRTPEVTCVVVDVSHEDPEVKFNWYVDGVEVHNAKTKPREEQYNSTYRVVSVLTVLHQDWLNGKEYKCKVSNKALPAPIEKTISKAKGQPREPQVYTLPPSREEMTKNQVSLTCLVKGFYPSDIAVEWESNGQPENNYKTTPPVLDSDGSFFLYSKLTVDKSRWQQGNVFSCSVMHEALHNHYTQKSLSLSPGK
light: DIQMTQSPSSLSASVGDRVTITCSASQDISNYLNWYQQKPGKAPKVLIYFTSSLHSGVPSRFSGSGSGTDFTLTISSLQPEDFATYYCQQYSTVPWTFGQGTKVEIKGGGSGGGDFQLTQSPSSLSASVGDRVTITCERSSGDIGDSYVSWYQQKPGKAPKNVIYADDQRPSGVPSRFSGSGSGNSASLTISSLQPEDFATYFCQSYDINIDIVFGQGTKVEIKGGGSGRTVAAPSVFIFPPSDEQLKSGTASVVCLLNNFYPREAKVQWKVDNALQSGNSQESVTEQDSKDSTYSLSSTLTLSKADYEKHKVYACEVTHQGLSSPVTKSFNRGEC
- NIH-3T3 hPDGF-BB Potency IC50: > 5 nM

B2: CODV003 cross-over DVD-Ig (PR-1565044) (bispecific antibody, human IgG1, kappa, L234A L235A)
heavy: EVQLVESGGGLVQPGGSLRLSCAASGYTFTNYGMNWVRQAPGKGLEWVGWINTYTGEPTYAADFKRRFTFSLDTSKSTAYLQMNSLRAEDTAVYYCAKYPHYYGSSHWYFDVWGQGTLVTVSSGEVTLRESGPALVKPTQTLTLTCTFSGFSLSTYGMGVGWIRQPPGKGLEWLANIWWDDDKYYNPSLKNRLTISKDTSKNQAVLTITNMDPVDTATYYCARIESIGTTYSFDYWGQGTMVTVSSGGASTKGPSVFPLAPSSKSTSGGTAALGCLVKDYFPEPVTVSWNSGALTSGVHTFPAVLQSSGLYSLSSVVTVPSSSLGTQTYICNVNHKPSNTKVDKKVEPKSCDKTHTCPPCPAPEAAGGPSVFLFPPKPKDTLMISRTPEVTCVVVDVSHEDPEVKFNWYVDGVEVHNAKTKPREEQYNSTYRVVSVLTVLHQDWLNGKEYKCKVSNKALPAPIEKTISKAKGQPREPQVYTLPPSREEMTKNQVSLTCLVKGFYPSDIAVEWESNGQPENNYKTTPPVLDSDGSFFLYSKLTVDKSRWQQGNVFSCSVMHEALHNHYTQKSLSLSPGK
light: DFQLTQSPSSLSASVGDRVTITCERSSGDIGDSYVSWYQQKPGKAPKNVIYADDQRPSGVPSRFSGSGSGNSASLTISSLQPEDFATYFCQSYDINIDIVFGQGTKVEIKGGGSGGGDIQMTQSPSSLSASVGDRVTITCSASQDISNYLNWYQQKPGKAPKVLIYFTSSLHSGVPSRFSGSGSGTDFTLTISSLQPEDFATYYCQQYSTVPWTFGQGTKVEIKGGGSGRTVAAPSVFIFPPSDEQLKSGTASVVCLLNNFYPREAKVQWKVDNALQSGNSQESVTEQDSKDSTYSLSSTLTLSKADYEKHKVYACEVTHQGLSSPVTKSFNRGEC
- NIH-3T3 hPDGF-BB Potency IC50: > 5 nM

B3: CODV006 cross-over DVD-Ig (PR-1565084) (bispecific antibody, human IgG1, kappa, L234A L235A)
heavy: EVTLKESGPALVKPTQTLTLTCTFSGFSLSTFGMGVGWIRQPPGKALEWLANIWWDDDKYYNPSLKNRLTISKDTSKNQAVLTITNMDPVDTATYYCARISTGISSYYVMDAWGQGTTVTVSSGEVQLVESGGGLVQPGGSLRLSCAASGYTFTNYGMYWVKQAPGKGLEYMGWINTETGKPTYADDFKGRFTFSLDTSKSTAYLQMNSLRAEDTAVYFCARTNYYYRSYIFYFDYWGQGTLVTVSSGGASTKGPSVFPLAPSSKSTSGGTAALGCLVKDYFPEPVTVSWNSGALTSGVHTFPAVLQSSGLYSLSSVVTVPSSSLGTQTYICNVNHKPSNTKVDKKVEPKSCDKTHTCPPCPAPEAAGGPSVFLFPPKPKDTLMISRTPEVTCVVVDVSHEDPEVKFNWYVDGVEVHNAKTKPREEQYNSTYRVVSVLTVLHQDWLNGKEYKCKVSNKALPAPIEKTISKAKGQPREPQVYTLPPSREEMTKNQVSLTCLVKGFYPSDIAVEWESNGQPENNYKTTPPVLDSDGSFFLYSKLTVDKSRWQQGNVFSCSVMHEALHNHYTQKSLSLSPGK
light: DTQLTQSPSSLSASVGDRVTISCRASESVSTHMHWYQQKPGKAPKLLIYGASNLESGVPSRFSGSGSGTDFTLTISSLQPEDFATYFCQQSWNDPFTFGQGTKVEIKGGGSGGGDFQLTQSPSSLSASVGDRVTITCERSSGDIGDTYVSWYQQKPGKAPKNVIYGNDQRPSGVPSRFSGSGSGNSATLTISSLQPEDFATYFCQSYDSDIDIVFGQGTKVEIKGGGSGRTVAAPSVFIFPPSDEQLKSGTASVVCLLNNFYPREAKVQWKVDNALQSGNSQESVTEQDSKDSTYSLSSTLTLSKADYEKHKVYACEVTHQGLSSPVTKSFNRGEC
- NIH-3T3 hPDGF-BB Potency IC50: > 5 nM

B5: CODV014 cross-over DVD-Ig (PR-1571826) (bispecific antibody, human IgG1, kappa, L234A L235A)
heavy: EVQLVQSGSELKKPGASVKVSCKASGYTFTNYGMYWVRQAPGQGLEWMGWINTETGKPTYADDFKGRFVFSLDTSVSTAYLQISSLKAEDTAVYYCARTNYYYRSYIFYFDYWGQGTMVTVSSGGGGSEFVLTQSPGTLSLSPGERATLSCERSSGDIGDSYVSWYQQKPGQAPRLVIYADDQRPSGIPDRFSGSGSGTDFTLTISRLEPEDFAVYYCQSYDINIDIVFGGGTKVEIKGGSASTKGPSVFPLAPSSKSTSGGTAALGCLVKDYFPEPVTVSWNSGALTSGVHTFPAVLQSSGLYSLSSVVTVPSSSLGTQTYICNVNHKPSNTKVDKKVEPKSCDKTHTCPPCPAPEAAGGPSVFLFPPKPKDTLMISRTPEVTCVVVDVSHEDPEVKFNWYVDGVEVHNAKTKPREEQYNSTYRVVSVLTVLHQDWLNGKEYKCKVSNKALPAPIEKTISKAKGQPREPQVYTLPPSREEMTKNQVSLTCLVKGFYPSDIAVEWESNGQPENNYKTTPPVLDSDGSFFLYSKLTVDKSRWQQGNVFSCSVMHEALHNAYTQKSLSLSPGK
light: EVTLRESGPALVKPTQTLTLTCTFSGFSLSTYGMGVGWIRQPPGKALEWLANIWWDDDKYYNPSLKNRLTISKDTSKNQVVLTMTNMDPVDTATYYCARIESIGTTYSFDYWGQGTMVTVSSGGGGSGGGDTVLTQSPATLSLSPGERATLSCRASESVSTHMHWYQQKPGQAPRLLIYGASNLESGVPARFSGSGSGTDFTLTISSLEPEDFAVYFCQQSWNDPFTFGQGTKLEIKGGGSGRTVAAPSVFIFPPSDEQLKSGTASVVCLLNNFYPREAKVQWKVDNALQSGNSQESVTEQDSKDSTYSLSSTLTLSKADYEKHKVYACEVTHQGLSSPVTKSFNRGEC
- NIH-3T3 hPDGF-BB Potency IC50: 0.469 nM

B6: CODV021 cross-over DVD-Ig (PR-1577053) (bispecific antibody, human IgG1, kappa, L234A L235A)
heavy: B7 heavy
light: EVTLRESGPALVKPTQTLTLTCTFSGFSLSTYGMGVGWIRQPPGKALEWLANIWWDDDKYYNPSLKNRLTISKDTSKNQVVLTMTNMDPVDTATYYCARIESIGTTYSFDYWGQGTMVTVSSGGGGSGGGDTVLTQSPATLSLSPGERATLSCRASESVSTHMHWYQQKPGQAPRLLIYGASNLESGVPARFSGSGSGTDFTLTISSLEPEDFAVYFCQQSWNDPFTFGQGTKLEIKGGSRTVAAPSVFIFPPSDEQLKSGTASVVCLLNNFYPREAKVQWKVDNALQSGNSQESVTEQDSKDSTYSLSSTLTLSKADYEKHKVYACEVTHQGLSSPVTKSFNRGEC
- NIH-3T3 hPDGF-BB Potency IC50: 0.056 nM

B8: CODV018 cross-over DVD-Ig (PR-1571831) (bispecific antibody, human IgG1, kappa, L234A L235A)
heavy: EFVLTQSPGTLSLSPGERATLSCERSSGDIGDSYVSWYQQKPGQAPRLVIYADDQRPSGIPDRFSGSGSGTDFTLTISRLEPEDFAVYYCQSYDINIDIVFGGGTKVEIKGGGSGGGDTVLTQSPATLSLSPGERATLSCRASESVSTHMHWYQQKPGQAPRLLIYGASNLESGVPARFSGSGSGTDFTLTISSLEPEDFAVYFCQQSWNDPFTFGQGTKLEIKGGGSGASTKGPSVFPLAPSSKSTSGGTAALGCLVKDYFPEPVTVSWNSGALTSGVHTFPAVLQSSGLYSLSSVVTVPSSSLGTQTYICNVNHKPSNTKVDKKVEPKSCDKTHTCPPCPAPEAAGGPSVFLFPPKPKDTLMISRTPEVTCVVVDVSHEDPEVKFNWYVDGVEVHNAKTKPREEQYNSTYRVVSVLTVLHQDWLNGKEYKCKVSNKALPAPIEKTISKAKGQPREPQVYTLPPSREEMTKNQVSLTCLVKGFYPSDIAVEWESNGQPENNYKTTPPVLDSDGSFFLYSKLTVDKSRWQQGNVFSCSVMHEALHNAYTQKSLSLSPGK
light: EVQLVQSGSELKKPGASVKVSCKASGYTFTNYGMYWVRQAPGQGLEWMGWINTETGKPTYADDFKGRFVFSLDTSVSTAYLQISSLKAEDTAVYYCARTNYYYRSYIFYFDYWGQGTMVTVSSGEVTLRESGPALVKPTQTLTLTCTFSGFSLSTYGMGVGWIRQPPGKALEWLANIWWDDDKYYNPSLKNRLTISKDTSKNQVVLTMTNMDPVDTATYYCARIESIGTTYSFDYWGQGTMVTVSSGGRTVAAPSVFIFPPSDEQLKSGTASVVCLLNNFYPREAKVQWKVDNALQSGNSQESVTEQDSKDSTYSLSSTLTLSKADYEKHKVYACEVTHQGLSSPVTKSFNRGEC
- NIH-3T3 hPDGF-BB Potency IC50: > 5 nM

B9: CODV005 cross-over DVD-Ig (PR-1565083) (bispecific antibody, human IgG1, kappa, L234A L235A)
heavy: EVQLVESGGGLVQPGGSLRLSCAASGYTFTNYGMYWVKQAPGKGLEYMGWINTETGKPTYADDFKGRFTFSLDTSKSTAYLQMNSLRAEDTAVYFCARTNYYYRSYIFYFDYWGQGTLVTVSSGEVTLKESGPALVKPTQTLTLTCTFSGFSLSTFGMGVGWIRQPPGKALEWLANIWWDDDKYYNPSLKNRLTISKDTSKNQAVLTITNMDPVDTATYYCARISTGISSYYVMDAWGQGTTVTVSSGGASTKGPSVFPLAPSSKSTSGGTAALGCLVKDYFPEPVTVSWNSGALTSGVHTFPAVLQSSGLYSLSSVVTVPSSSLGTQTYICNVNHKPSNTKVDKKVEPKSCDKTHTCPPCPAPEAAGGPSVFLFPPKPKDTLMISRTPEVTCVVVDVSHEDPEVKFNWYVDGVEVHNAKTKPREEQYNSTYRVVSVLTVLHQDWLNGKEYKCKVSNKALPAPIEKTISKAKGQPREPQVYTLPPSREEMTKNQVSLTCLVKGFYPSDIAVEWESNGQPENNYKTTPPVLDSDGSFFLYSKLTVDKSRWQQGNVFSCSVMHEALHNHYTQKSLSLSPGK
light: DFQLTQSPSSLSASVGDRVTITCERSSGDIGDTYVSWYQQKPGKAPKNVIYGNDQRPSGVPSRFSGSGSGNSATLTISSLQPEDFATYFCQSYDSDIDIVFGQGTKVEIKGGGSGGGDTQLTQSPSSLSASVGDRVTISCRASESVSTHMHWYQQKPGKAPKLLIYGASNLESGVPSRFSGSGSGTDFTLTISSLQPEDFATYFCQQSWNDPFTFGQGTKVEIKGGGSGRTVAAPSVFIFPPSDEQLKSGTASVVCLLNNFYPREAKVQWKVDNALQSGNSQESVTEQDSKDSTYSLSSTLTLSKADYEKHKVYACEVTHQGLSSPVTKSFNRGEC
- NIH-3T3 hPDGF-BB Potency IC50: > 5 nM

B10: CODV017 cross-over DVD-Ig (PR-1571830) (bispecific antibody, human IgG1, kappa, L234A L235A)
heavy: DTVLTQSPATLSLSPGERATLSCRASESVSTHMHWYQQKPGQAPRLLIYGASNLESGVPARFSGSGSGTDFTLTISSLEPEDFAVYFCQQSWNDPFTFGQGTKLEIKGGGSGGGEFVLTQSPGTLSLSPGERATLSCERSSGDIGDSYVSWYQQKPGQAPRLVIYADDQRPSGIPDRFSGSGSGTDFTLTISRLEPEDFAVYYCQSYDINIDIVFGGGTKVEIKGGGSGASTKGPSVFPLAPSSKSTSGGTAALGCLVKDYFPEPVTVSWNSGALTSGVHTFPAVLQSSGLYSLSSVVTVPSSSLGTQTYICNVNHKPSNTKVDKKVEPKSCDKTHTCPPCPAPEAAGGPSVFLFPPKPKDTLMISRTPEVTCVVVDVSHEDPEVKFNWYVDGVEVHNAKTKPREEQYNSTYRVVSVLTVLHQDWLNGKEYKCKVSNKALPAPIEKTISKAKGQPREPQVYTLPPSREEMTKNQVSLTCLVKGFYPSDIAVEWESNGQPENNYKTTPPVLDSDGSFFLYSKLTVDKSRWQQGNVFSCSVMHEALHNAYTQKSLSLSPGK
light: EVTLRESGPALVKPTQTLTLTCTFSGFSLSTYGMGVGWIRQPPGKALEWLANIWWDDDKYYNPSLKNRLTISKDTSKNQVVLTMTNMDPVDTATYYCARIESIGTTYSFDYWGQGTMVTVSSGEVQLVQSGSELKKPGASVKVSCKASGYTFTNYGMYWVRQAPGQGLEWMGWINTETGKPTYADDFKGRFVFSLDTSVSTAYLQISSLKAEDTAVYYCARTNYYYRSYIFYFDYWGQGTMVTVSSGGRTVAAPSVFIFPPSDEQLKSGTASVVCLLNNFYPREAKVQWKVDNALQSGNSQESVTEQDSKDSTYSLSSTLTLSKADYEKHKVYACEVTHQGLSSPVTKSFNRGEC
- NIH-3T3 hPDGF-BB Potency IC50: > 5 nM
